Measured values: paper doi:10.1101/2021.03.15.435484, “Functional development of a V3-specific broadly neutralizing antibody isolated from a case of HIV superinfection” (bioRxiv, 2021)

Biological target: BG505.SOSIP.664 Env trimer (heterologous clade A native-like trimer containing the N332 glycan) (HIV-1 clade A, isolate BG505 …, stabilised)
Test: cell-based or functional assay

B1: QA013.2 CDRH3 point mutant antibody D106V (mature VH D106V paired with the mature light chain) (antibody, V domains shown)
VH: DIRIAESGGGLVQPGESLRLACEIIELGFRRAWTTWVRQAPGKGLEWVADINEDGSEKKYGPSVTGRFTISRDNGKNLVFLQMNSLRVEDTATYYCAREAYHLVYVDRIPRGNWFDPWGPGTLVTVSS
VL: QSVLTQPPSVSGAPGQRVVISCTGSRSNIGAGYDVHWYQQSPGKVPRIIIYGSNSRSSGVPARFSGSKSGTSASLAITGLQAEDEADYYCQSYDTTLTASVFGGGTKVTVL
  average fold increase in neutralisation IC50 across all tested pseudoviruses relative to the mature bnAb (TZM-bl assay): 40 fold
